Assay results: US20210130437A1 (ALPINE IMMUNE SCIENCES, published 2021)

T1: TIGIT (UniProt Q495A1 22-244)
T1 construct: whole, on cells; cell-expressed counter structure
T1 sequence (looked up): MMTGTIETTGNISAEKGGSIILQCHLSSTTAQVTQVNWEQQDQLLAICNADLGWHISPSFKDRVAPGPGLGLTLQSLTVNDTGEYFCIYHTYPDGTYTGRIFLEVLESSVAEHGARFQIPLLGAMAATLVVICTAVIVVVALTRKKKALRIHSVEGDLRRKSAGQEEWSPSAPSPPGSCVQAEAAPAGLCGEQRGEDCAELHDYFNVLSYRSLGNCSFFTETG

T2: CD226 (Homo sapiens (Human), UniProt Q15762 19-336)
T2 construct: on transfected cells
T2 sequence: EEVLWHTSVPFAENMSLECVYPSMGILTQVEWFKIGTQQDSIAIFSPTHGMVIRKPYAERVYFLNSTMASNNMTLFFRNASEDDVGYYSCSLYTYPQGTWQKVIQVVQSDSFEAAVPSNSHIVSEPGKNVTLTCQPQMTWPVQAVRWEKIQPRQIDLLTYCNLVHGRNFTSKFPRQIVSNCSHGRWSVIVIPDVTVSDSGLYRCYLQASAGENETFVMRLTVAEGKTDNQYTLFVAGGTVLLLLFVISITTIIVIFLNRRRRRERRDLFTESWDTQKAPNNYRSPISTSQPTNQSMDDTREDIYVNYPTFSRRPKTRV

T3: TIGIT (Homo sapiens (Human), UniProt Q495A1 22-244)
T3 construct: on transfected cells
T3 sequence: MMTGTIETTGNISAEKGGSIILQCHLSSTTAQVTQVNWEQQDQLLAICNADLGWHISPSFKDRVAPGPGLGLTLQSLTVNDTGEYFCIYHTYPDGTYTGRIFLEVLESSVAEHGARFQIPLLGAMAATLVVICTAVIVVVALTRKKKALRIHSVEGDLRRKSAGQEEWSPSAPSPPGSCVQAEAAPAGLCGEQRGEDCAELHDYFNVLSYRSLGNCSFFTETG

T4: CD96 (UniProt P40200 22-585, limits assumed)
T4 construct: whole, on cells; on transfected cells
T4 sequence (looked up): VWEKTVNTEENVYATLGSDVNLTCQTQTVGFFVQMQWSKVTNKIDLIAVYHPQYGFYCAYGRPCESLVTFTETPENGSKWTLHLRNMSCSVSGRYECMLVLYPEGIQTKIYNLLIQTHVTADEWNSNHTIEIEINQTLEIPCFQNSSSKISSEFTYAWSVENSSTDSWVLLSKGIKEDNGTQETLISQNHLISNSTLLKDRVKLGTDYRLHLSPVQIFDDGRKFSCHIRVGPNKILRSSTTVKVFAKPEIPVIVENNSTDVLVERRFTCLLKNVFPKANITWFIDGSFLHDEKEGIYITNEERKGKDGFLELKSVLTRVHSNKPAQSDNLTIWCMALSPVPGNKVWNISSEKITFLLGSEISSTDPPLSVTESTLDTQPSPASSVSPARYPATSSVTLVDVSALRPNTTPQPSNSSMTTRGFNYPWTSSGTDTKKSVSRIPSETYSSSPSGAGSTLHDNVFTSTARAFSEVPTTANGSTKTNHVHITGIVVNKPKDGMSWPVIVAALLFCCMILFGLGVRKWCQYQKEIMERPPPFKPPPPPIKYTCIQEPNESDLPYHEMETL


How the values were obtained:
[1] = biological target: T1, TIGIT; assay: flow cytometry, cells expressing TIGIT
[2] = biological target: T2, CD226; assay: flow cytometry, transfected cells
[3] = biological target: T3, TIGIT; assay: flow cytometry, transfected cells
[4] = biological target: T4, CD96; assay: flow cytometry, transfected cells
[5] = biological target: T5, CD28 (Homo sapiens (Human), UniProt P10747 19-220); assay: flow cytometry, HEK293 cells transfected with CD28
T5 construct: Expressed on transfected HEK293 cells

Binder	MFI at 25 nM [1]	MFI parental ratio [2]	MFI parental ratio [3]	MFI parental ratio [4]	MFI at 66.6 nM [5]
variant CD155 IgV-Fc V9L, V11M, P18S, N35S, S54G, Q62K, L79P, L104M, T107M, V115M (Fc fusion, not shown: a dimerising Fc or GST) WPPPGTGDLVMQAPTQVSGFLGDSVTLPCYLQVPSMEVTHVSQLTWARHGESGGMAVFHQTKGPSYSESKRLEFVAARPGAELRNASLRMFGLRVEDEGNYTCMFVMFPQGSRSMDIWLRVL	3000				
Wildtype CD155 IgV Fc (Fc fusion, not shown: a dimerising Fc or GST) WPPPGTGDVVVQAPTQVPGFLGDSVTLPCYLQVPNMEVTHVSQLTWARHGESGSMAVFHQTQGPSYSESKRLEFVAARLGAELRNASLRMFGLRVEDEGNYTCLFVTFPQGSRSVDIWLRVL		1 ratio	1 ratio	1 ratio	
variant CD155 IgV-Fc P18T, F91S, R94H (Fc fusion, not shown: a dimerising Fc or GST) WPPPGTGDVVVQAPTQVTGFLGDSVTLPCYLQVPNMEVTHVSQLTWARHGESGSMAVFHQTQGPSYSESKRLEFVAARLGAELRNASLRMSGLHVEDEGNYTCLFVTFPQGSRSVDIWLRVL		1 ratio	1.1 ratio	0.8 ratio	
variant CD155 IgV-Fc A81V, L83P (Fc fusion, not shown: a dimerising Fc or GST) WPPPGTGDVVVQAPTQVPGFLGDSVTLPCYLQVPNMEVTHVSQLTWARHGESGSMAVFHQTQGPSYSESKRLEFVAARLGVEPRNASLRMFGLRVEDEGNYTCLFVTFPQGSRSVDIWLRVL		1.1 ratio	1.1 ratio	0.8 ratio	
variant CD155 IgV-Fc P18L, L79V, F91S (Fc fusion, not shown: a dimerising Fc or GST) WPPPGTGDVVVQAPTQVLGFLGDSVTLPCYLQVPNMEVTHVSQLTWARHGESGSMAVFHQTQGPSYSESKRLEFVAARVGAELRNASLRMSGLRVEDEGNYTCLFVTFPQGSRSVDIWLRVL		1.4 ratio	1.5 ratio	1.1 ratio	
WT CD80 ECD Fc (Fc fusion, not shown: a dimerising Fc or GST) VIHVTKEVKEVATLSCGHNVSVEELAQTRIYWQKEKKMVLTMMSGDMNIWPEYKNRTIFDITNNLSIVILALRPSDEGTYECVVLKYEKDAFKREHLAEVTLSVKADFPTPSISDFEIPTSNIRRIICSTSGGFPEPHLSWLENGEELNAINTTVSQDPETELYAVSSKLDFNMTTNHSFMCLIKYGHLRVNQTFNWNTTKQEHFPDN					3070
